Usually Kd stands for a measure of binding affinity in units of concentration.

Among the data in patent publication US20160060360A1 are Kd values, retold here.

recombinant human FcγRIIb protein (R&D Systems) (human), sequence (P31994 46-217 limits assumed): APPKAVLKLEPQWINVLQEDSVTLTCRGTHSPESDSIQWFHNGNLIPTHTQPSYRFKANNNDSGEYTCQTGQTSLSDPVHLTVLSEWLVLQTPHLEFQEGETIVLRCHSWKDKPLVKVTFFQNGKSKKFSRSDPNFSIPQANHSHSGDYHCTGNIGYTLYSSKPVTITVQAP

One assay addresses recombinant human FcγRIIb protein (R&D Systems) (human) (UniProt P31994). As to the kind of experiment: SPR (Biacore 3000), antibody captured on protein A/G chip, FcγR injected, 1:1 Langmuir fit.
With “anti-CD19 antibody HuAM4G7, WT (native) IgG1”, the Kd is 1800 nM.

The target is the same in another assay. In words: Biacore, 'according to the data herein'. For orientation: Surface plasmon resonance follows binding to a sensor surface in real time, without labels.
With “anti-CD19 antibody HuAM4G7, WT (native) IgG1”, the Kd stood at 2000 nM.

For the next assay, the target named is FcγRIIIaF. In words: SPR.
L328F displayed a Kd of 5110 nM.

The next assay concerns the target FcγRIIaR. In words: SPR.
The substance A327N returned a Kd of 1410 nM.

For the substance L328F, the dissociation constant Kd worked out at 166 nM.

Regarding S267E/H268E/L328F, the Kd was 3.4 nM.

In the case of S267E/L328H, the Kd turned out to be 185 nM.

As to S267D, the Kd amounted to 95.5 nM.

On to H268D, for which the Kd was determined as 205 nM.

The substance H268Q displayed a Kd of 544 nM.

Turning to S267G, the dissociation constant (Kd) was found to be 517 nM.

S267E/N325L had a Kd of 20.7 nM.

In turn, S239D/S267E/L328F yielded a Kd of 2.06 nM.

In turn, A327G showed a Kd of 2690 nM.

Take A327D: the Kd came out at 536 nM.

V266M returned a Kd of 274 nM.

In turn, S267E displayed a Kd of 29.1 nM.

On to H268N, for which the Kd is 481 nM.

S267E/A327E returned a Kd of 29.3 nM.

On to H268E, for which the equilibrium dissociation constant (Kd) stood at 269 nM.

On to V266D, for which the Kd was 1220 nM.

S267E/L328Y returned a Kd of 7.06 nM.

Take S267E/L328I: the Kd was 11.6 nM.

S239E returned a Kd of 1250 nM.

For S239Q, the Kd was 1010 nM.

With S267E/A327D, the Kd was determined as 51.3 nM.

For S267E/H268E, the Kd was found to be 20.6 nM.

On to P329E, for which the equilibrium dissociation constant (Kd) worked out at 10000 nM.

V266M/S267E showed a Kd of 28 nM.

For D265E, the equilibrium dissociation constant (Kd) was determined as 2790 nM.

On to A327Q, for which the Kd worked out at 1350 nM.

On to S267A, for which the Kd was 200 nM.

In turn, S239N yielded a Kd of 990 nM.

As to S298D, the Kd worked out at 592 nM.
